Values quoted from earlier work, collected in publication PMC2678197.

Experiments:
[1] = target: CCR5 N-terminal peptide (unsulfated) N-terminal region (Homo sapiens) (UniProt P51681); assay: NMR
[2] = target: CCR5 N-terminal peptide (bis-sulfated) N-terminal region (Homo sapiens) (UniProt P51681); assay: NMR
[3] = target: CCR3 N-terminal peptide (truncated, non-sulfated) 8-23 (Homo sapiens) (UniProt P51677)
[4] = target: CCR3 N-terminal peptide (35 residues, non-sulfated) 1-35 (Homo sapiens) (UniProt P51677)
Sequence of CCR3 N-terminal peptide (35 residues, non-sulfated) 1-35 (Homo sapiens) (P51677 1-35): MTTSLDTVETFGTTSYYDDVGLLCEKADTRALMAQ

Sequence of eotaxin (P51671 24-97): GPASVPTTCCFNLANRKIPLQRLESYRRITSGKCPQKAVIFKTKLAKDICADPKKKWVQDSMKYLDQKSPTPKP
Sequence of RANTES (P13501 27-91): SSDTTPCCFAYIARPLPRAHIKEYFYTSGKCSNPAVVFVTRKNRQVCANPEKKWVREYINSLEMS
Sequence of CCR5 N-terminal peptide (unsulfated) N-terminal region (Homo sapiens) (P51681 1-27): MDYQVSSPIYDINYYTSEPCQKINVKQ

Substance	Kd [1] [µM]	Kd [2] [µM]	Kd [3] [µM]	Kd [4] [µM]
RANTES (from UniProt P13501)	168	< 20	–	–
eotaxin (from UniProt P51671)	–	–	136	80
